Measurements: publication PMC3170560

Substrate: C=CC1=C(C)C2=Cc3c(C=C)c(C)c4[n]3[Fe]([Cl])[n]3c(c(C)c(CCC(=O)O)c3=CC3=NC(=C4)C(C)=C3CCC(=O)O)=CC1=N2
Experiment: purified protein
Conditions: haemin 1-20 μM, NADPH added to start, 0.1 M HEPES-NaOH pH 7.2

B1: mBnHO1 (mature BnHO1, haem oxygenase-1) (Brassica napus) (protein)
chain: ATAAEKQKKKRYPGESKGFVEEMRFVAMRLHTKEQAKEGEKETKAPEERPVAKWEPTVEGYLRFLVDSKLVYDTLEEIIGQSTFPTYAEFKNTGLERAEKLDTDLKWFKEQGYEIPEPTATGKKYSQYLKDLADKDPPSFICHFYNIYFAHSAGGRMIGRKVAERILDNRELEFYKWDGDLSELLQNVREKLNKVAEEWTREEKNHCLVGDRESFKYSGEILRLILS
- Km: 2.52 µM
